Publication PMC8406272

How the values were obtained:
[1] = biological target: T1, Lsr2 (Streptomyces venezuelae ATCC 10712) (UniProt F2R951); assay: EMSA; conditions: 10 mM Tris pH 7.8, 5 mM MgCl2, 60 mM KCl, 10% glycerol; Lsr2 (EMSA, AFM): room temperature 10 min then ice 30 min; CmlR: 30 C 30 min
T1 sequence: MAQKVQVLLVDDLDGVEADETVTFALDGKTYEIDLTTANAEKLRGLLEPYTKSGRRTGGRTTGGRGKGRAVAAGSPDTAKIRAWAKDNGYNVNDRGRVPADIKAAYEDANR

[2] = biological target: T2, CmlR (Streptomyces venezuelae ATCC 10712) (UniProt F2RB72); assay: EMSA; conditions: 10 mM Tris pH 7.8, 5 mM MgCl2, 60 mM KCl, 10% glycerol; Lsr2 (EMSA, AFM): room temperature 10 min then ice 30 min; CmlR: 30 C 30 min
T2 sequence: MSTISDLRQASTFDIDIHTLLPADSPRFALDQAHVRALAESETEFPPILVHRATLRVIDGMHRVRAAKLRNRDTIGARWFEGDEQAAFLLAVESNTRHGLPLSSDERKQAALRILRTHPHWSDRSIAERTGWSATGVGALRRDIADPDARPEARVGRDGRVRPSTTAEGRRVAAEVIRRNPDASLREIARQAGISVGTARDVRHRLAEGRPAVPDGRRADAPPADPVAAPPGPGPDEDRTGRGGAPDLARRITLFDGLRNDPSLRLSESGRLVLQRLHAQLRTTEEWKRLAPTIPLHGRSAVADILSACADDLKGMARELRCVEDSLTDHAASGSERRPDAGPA

| Sequence | binding [1] | binding [2] |
| --- | --- | --- |
| GGATTTTCCTGAACGCCGGAGTCGGGTGACCGATAACCGGACACTTTCCGGATTTCGTGTCCGGATTGAGCCCGGTTATACGTCGAATGCCTCAAGT (double strand) [sven0904-0905 probe] | binds | – |
| GGAGACGTTCAGGATCGCGGAACTCTGCTCAGTGGATTTCCGCAGCAGTTTGACCGCTTCCCGGCAGCAGTTCAGCACGGCGAAGAAATTGATGTCGAATATCTTCCGGGAAACCTCGTCCGGGGTCGTCATGAAATGGTTCATCGACGA (double strand) [sven0926 probe] | binds | – |
| GGTGGATTCCGTAGTCATGGCGCGGACCTTACAGCGATGATCCACGATCATCCGACCGGCTTGTCTATTTTCAGCCAGTCCGACTCGCACCCGGCTCGAACGAAGCCGTGGCCCGAGCGTCACGGAAAGCGTGACACATGTCAGCGCGGCGCCTTTTTCCCTGTTCCGCCGCAATTCCCCGGCACATGATTACGGCCGGAAGCGAAACACATCACCAGGACGTTGTTTCTCGAATTCTCG (double strand) [sven5133 promoter probe] | – | no binding |
| GGCCCACCCCTTCCTTCACTTCCCTTTGCGGGCTCTTCCCTTTGCGGGCTCGGCCCTTCCCGGGTCCGGCGTCTCGAAGTCTGTGGATATCGGTCGCGGGCCGCAAGGGTGTGCAGATCACCACCCCGTGCAACTGAAGGAACCGGACAGTTGAACAGGGCGGTGAACCGCGCGGACTGAACGACCTTGCGTGGGCCGGGGGCGTATGACATAAAAATCCAGGCGTCGGCCCGGAGCACGACTCGGCCGGCGACGCGATCTGTTCTGTCT (double strand) [sven0924-0925 promoter probe] | – | binds |
